Data as given in article PMC8533642 (Journal of medicinal chemistry, 2021).
Square brackets hold non-standard residues; d marks the D form. dPhe(4-I) = N[C@H](Cc1ccc(I)cc1)C(=O)O; 2Nal = N[C@@H](Cc1ccc2ccccc2c1)C(=O)O; d2Nal = N[C@H](Cc1ccc2ccccc2c1)C(=O)O

Key:
[1] = biological target: mouse melanocortin-4 receptor (mouse) (UniProt P56450)
[2] = biological target: mouse melanocortin-3 receptor (mouse) (UniProt P33033)
[3] = biological target: mouse melanocortin-5 receptor (mouse) (UniProt P41149)
Chain of mouse melanocortin-5 receptor (mouse) (P41149 whole entry): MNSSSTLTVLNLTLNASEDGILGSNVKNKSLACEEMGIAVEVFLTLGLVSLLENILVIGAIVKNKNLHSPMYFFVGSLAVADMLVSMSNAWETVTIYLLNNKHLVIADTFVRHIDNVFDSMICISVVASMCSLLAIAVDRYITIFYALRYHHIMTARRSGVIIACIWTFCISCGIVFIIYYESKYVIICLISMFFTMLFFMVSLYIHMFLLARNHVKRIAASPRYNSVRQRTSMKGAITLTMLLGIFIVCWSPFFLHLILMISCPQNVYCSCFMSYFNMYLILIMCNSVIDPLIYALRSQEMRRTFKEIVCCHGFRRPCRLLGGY

[4] = biological target: mouse melanocortin-1 receptor (mouse) (UniProt Q01727)
Chain of mouse melanocortin-1 receptor (mouse) (Q01727 whole entry): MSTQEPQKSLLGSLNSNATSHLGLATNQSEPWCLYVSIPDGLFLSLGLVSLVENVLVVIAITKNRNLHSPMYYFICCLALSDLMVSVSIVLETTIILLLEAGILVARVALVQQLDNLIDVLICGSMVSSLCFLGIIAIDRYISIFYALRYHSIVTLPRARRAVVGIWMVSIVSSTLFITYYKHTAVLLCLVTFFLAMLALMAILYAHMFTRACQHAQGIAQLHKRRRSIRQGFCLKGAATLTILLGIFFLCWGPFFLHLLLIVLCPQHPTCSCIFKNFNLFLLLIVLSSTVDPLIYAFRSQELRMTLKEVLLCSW

[5] = biological target: mouse melanocortin-4 receptor (mouse) (UniProt P56450); remark: listed apart in the source
[6] = biological target: mouse melanocortin-3 receptor (mouse) (UniProt P33033); remark: listed apart in the source

Chain of mouse melanocortin-4 receptor (mouse) (P56450 whole entry): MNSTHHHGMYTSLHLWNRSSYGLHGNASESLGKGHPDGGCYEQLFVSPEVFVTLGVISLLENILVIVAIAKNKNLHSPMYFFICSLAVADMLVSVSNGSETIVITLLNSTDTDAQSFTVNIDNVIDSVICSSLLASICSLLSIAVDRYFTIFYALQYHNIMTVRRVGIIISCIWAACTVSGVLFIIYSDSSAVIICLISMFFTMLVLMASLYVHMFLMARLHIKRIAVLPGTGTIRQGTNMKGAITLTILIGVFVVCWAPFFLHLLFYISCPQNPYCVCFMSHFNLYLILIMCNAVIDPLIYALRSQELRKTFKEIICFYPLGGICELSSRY
Chain of mouse melanocortin-3 receptor (mouse) (P33033 whole entry): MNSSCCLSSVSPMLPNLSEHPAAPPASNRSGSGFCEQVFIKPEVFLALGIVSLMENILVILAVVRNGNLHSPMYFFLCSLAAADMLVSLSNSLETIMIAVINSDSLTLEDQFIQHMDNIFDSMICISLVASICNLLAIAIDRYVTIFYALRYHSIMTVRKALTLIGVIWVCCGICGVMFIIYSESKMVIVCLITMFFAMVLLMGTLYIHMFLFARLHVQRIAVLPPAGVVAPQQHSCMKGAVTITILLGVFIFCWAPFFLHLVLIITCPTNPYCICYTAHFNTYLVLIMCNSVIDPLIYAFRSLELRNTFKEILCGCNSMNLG

Row | % of maximal NDP-MSH response at 100 μM, cAMP AlphaScreen [1] [%] | % of maximal NDP-MSH response at 100 μM, cAMP AlphaScreen [2] [%] | % of maximal NDP-MSH response at 100 μM, cAMP AlphaScreen [3] [%] | % of maximal NDP-MSH response at 100 μM, cAMP AlphaScreen [4] [%] | pA2, antagonism of NDP-MSH at mMC4R, Schild analysis, cAMP AlphaScreen [5] | agonist EC50, cAMP AlphaScreen [2] [µM] | agonist EC50, cAMP AlphaScreen [3] [µM] | antagonist Ki = 10^-(pA2), NDP-MSH at mMC4R, cAMP AlphaScreen [5] [µM] | antagonist Ki = 10^-(pA2), NDP-MSH at mMC3R, cAMP AlphaScreen [6] [µM] | pA2, antagonism of NDP-MSH at mMC3R, Schild analysis, cAMP AlphaScreen [6] | agonist EC50, cAMP AlphaScreen [1] [µM] | agonist EC50, cAMP AlphaScreen [4] [µM] | % receptor activation relative to NDP-MSH (partial agonist), cAMP AlphaScreen [4] [%] | apparent EC50 (partial agonist), cAMP AlphaScreen [4] [µM] | Substance
1 | 30 | 30 | 25 | 40 | 6.7 |  |  |  |  |  |  |  |  |  | Ac-DNal(2’)-Arg-Nal(2’)-DNal(2’)-NH2 (peptide)
2 |  |  |  | 25 | < 5.5 | > 100 |  |  |  | < 5.5 | > 100 |  |  |  | Ac-DNal(2’)-DNal(2’)-DPhe(pI)-Arg-NH2 (peptide)
3 |  |  |  | 55 | < 5.5 | > 100 | > 100 |  |  | < 5.5 | > 100 |  |  |  | Ac-DNal(2’)-DNal(2’)-DNal(2’)-DLys-NH2 (peptide)
4 |  |  |  |  | 8.3 | > 100 | > 100 |  |  | 6.1 | > 100 |  | 60 | 1 | Ac-DNal(2’)-Arg-DNal(2’)-Arg-NH2 (peptide)
5 |  |  |  |  | 8.2 | > 100 | > 100 |  |  |  | > 100 |  | 30 | 6 | Ac-DNal(2’)-Arg-DNal(2’)-DLys-NH2 (peptide)
6 | 60 | 35 | 45 | 45 | < 5.5 |  |  |  |  | < 5.5 |  |  |  |  | Ac-[d2Nal][d2Nal]WR-NH2
7 |  |  |  | 45 |  | > 100 | > 100 |  |  |  | > 100 |  |  |  | Ac-DNal(2’)-DNal(2’)-Nal(2’)-DLys-NH2 (peptide)
8 |  |  |  |  |  | > 100 | > 100 |  |  |  | > 100 | > 100 |  |  | Ac-DPhe(pI)-DNal(2’)-DPhe(pI)-DLys-NH2 (peptide)
9 |  |  |  | 35 | 6.3 | > 100 | > 100 |  |  |  | > 100 |  |  |  | Ac-DPhe(pI)-DNal(2’)-DNal(2’)-DLys-NH2 (peptide)
10 | 35 | 25 |  | 45 | 7.6 |  | > 100 |  |  |  |  |  |  |  | Ac-[dPhe(4-I)]RW[d2Nal]-NH2
11 | 20 |  |  | 40 | 8.3 | > 100 | > 100 |  |  | 6.8 |  |  |  |  | Ac-[d2Nal]RWR-NH2
12 | 45 | 45 | 20 | 80 | 6.7 |  |  |  |  | 6.1 |  |  |  |  | Ac-DPhe(pI)-Arg-DNal(2’)-DNal(2’)-NH2 (peptide)
13 |  |  |  |  | 8.6 | > 100 | > 100 |  |  | 7.2 | > 100 |  | 30 | 3.5 | Ac-DPhe(pI)-Arg-DNal(2’)-DLys-NH2 (peptide)
14 |  |  |  |  |  | > 100 | 0.23 |  |  |  | > 100 | > 100 |  |  | Ac-DPhe(pI)-DNal(2’)-DNal(2’)-Arg-NH2 (peptide)
15 | 30 | 40 |  | 40 |  |  | > 100 |  |  | 5.7 |  |  |  |  | Ac-[d2Nal]RW[d2Nal]-NH2
16 |  | 20 | 50 | 40 |  |  |  |  |  |  | > 100 |  |  |  | Ac-DPhe(pI)-DNal(2’)-Nal(2’)-DLys-NH2 (peptide)
17 |  |  |  | 20 | < 5.5 | > 100 | > 100 |  |  | < 5.5 | > 100 |  |  |  | Ac-DNal(2’)-DNal(2’)-DPhe(pI)-DLys-NH2 (peptide)
18 |  |  |  | 40 |  | > 100 | 0.13 |  |  |  | > 100 |  |  |  | Ac-DPhe(pI)-DNal(2’)-DPhe(pI)-Arg-NH2 (peptide)

Further lines, the substance ahead of its results:

Row | Substance | % of maximal NDP-MSH response at 100 μM, cAMP AlphaScreen [1] [%] | % of maximal NDP-MSH response at 100 μM, cAMP AlphaScreen [2] [%] | % of maximal NDP-MSH response at 100 μM, cAMP AlphaScreen [3] [%] | % of maximal NDP-MSH response at 100 μM, cAMP AlphaScreen [4] [%] | pA2, antagonism of NDP-MSH at mMC4R, Schild analysis, cAMP AlphaScreen [5] | agonist EC50, cAMP AlphaScreen [2] [µM] | agonist EC50, cAMP AlphaScreen [3] [µM] | antagonist Ki = 10^-(pA2), NDP-MSH at mMC4R, cAMP AlphaScreen [5] [µM] | antagonist Ki = 10^-(pA2), NDP-MSH at mMC3R, cAMP AlphaScreen [6] [µM] | pA2, antagonism of NDP-MSH at mMC3R, Schild analysis, cAMP AlphaScreen [6] | agonist EC50, cAMP AlphaScreen [1] [µM] | agonist EC50, cAMP AlphaScreen [4] [µM] | % receptor activation relative to NDP-MSH (partial agonist), cAMP AlphaScreen [4] [%] | apparent EC50 (partial agonist), cAMP AlphaScreen [4] [µM]
19 | Ac-DNal(2’)-DNal(2’)-Trp-DLys-NH2 (peptide) | 30 |  |  | 25 | 6.7 | > 100 | > 100 | 0.2 | 1.6 | 5.8 |  |  |  | 
20 | Ac-[d2Nal]RW[dK]-NH2 |  |  |  |  | 7.7 | > 100 | > 100 |  |  | 5.5 | > 100 | > 100 |  | 
21 | Ac-[d2Nal]R[2Nal]R-NH2 | 30 |  |  |  | 8.8 | > 100 | > 100 |  |  |  |  | > 100 |  | 
22 | Ac-DPhe(pI)-DNal(2’)-Trp-Arg-NH2 (peptide) |  |  |  |  | 5.6 | > 100 | > 100 |  |  |  | > 100 | > 100 |  | 
23 | Ac-DPhe(pI)-DNal(2’)-Nal(2’)-Arg-NH2 (peptide) |  |  |  | 20 | 5.8 | > 100 | 0.8 |  |  |  | > 100 |  |  | 
24 | Ac-[dPhe(4-I)]R[2Nal][dK]-NH2 |  |  |  |  |  | > 100 | > 100 |  |  | 6.8 | > 100 | > 100 |  | 
25 | Ac-DNal(2’)-Arg-DNal(2’)-DNal(2’)-NH2 (peptide) | 45 | 50 | 20 |  | 6.3 |  |  |  |  | 5.7 |  |  | 85 | 5
26 | Ac-Phe(pI)-Nal(2’)-Phe(pI)-Arg-NH2 (peptide) |  |  |  | 60 |  |  |  |  |  |  |  |  |  | 
27 | Ac-DNal(2’)-DNal(2’)-Nal(2’)-Arg-NH2 (peptide) |  |  | 40 | 55 |  | > 100 |  |  |  |  | > 100 |  |  | 
28 | Ac-[dPhe(4-I)]R[2Nal]R-NH2 | 25 |  |  | 25 |  | > 100 | > 100 | 0.001 |  | 7.8 |  |  |  | 
29 | Ac-DPhe(pI)-Arg-DPhe(pI)-DNal(2’)-NH2 (peptide) | 40 | 40 | 65 |  | 6.6 |  |  |  |  | 6.3 |  | 1.1 |  | 
30 | Ac-DNal(2’)-Arg-DPhe(pI)-Arg-NH2 (peptide) |  |  |  |  | 8.6 | > 100 | > 100 |  |  | 7.1 | > 100 | 0.04 |  | 
31 | Ac-DNal(2’)-Arg-DPhe(pI)-DLys-NH2 (peptide) |  |  |  |  | 8.5 | > 100 | > 100 |  |  | 6.9 | > 100 | 0.22 |  | 
32 | Ac-DPhe(pI)-DNal(2’)-Trp-DLys-NH2 (peptide) |  |  |  | 65 | 6.6 | > 100 | > 100 |  |  | 5.7 | > 100 |  |  | 
33 | Ac-DNal(2’)-Arg-DPhe(pI)-DNal(2’)-NH2 (peptide) | 30 | 40 | 40 |  | 6.5 |  |  |  |  | 6.1 |  |  |  | 
34 | Ac-[dPhe(4-I)]R[2Nal][d2Nal]-NH2 |  |  |  | 55 | 6.7 | > 100 | > 100 |  |  |  | > 100 |  |  | 
